We go through 1 substance from patent US20250270325A1.

This assay concerns the target target antigen. In words: antigen binding ELISA, antigen coated on plate.

Where only a bound is given, the exact number is not on record here.

isotype control (antibody) yielded a no binding up to (highest concentration tested) above 5 µM.
